Measurements reported in patent EP2386565A2 (Cambridge Enterprise Ltd., dated 2000).
No end group written: not given here. *: point of attachment. Biotin = O=C1N[C@H]2[C@H](CS[C@H]2CCCCC(=O)*)N1

Key:
[1] = target: T1, Duffy Antigen Receptor for Chemokines (DARC) (human, UniProt Q16570 1-336); experiment: ka for binding to red blood cells divided by ka for binding to THP-1 cells
T1 construct: whole, on cells
T1 sequence (looked up): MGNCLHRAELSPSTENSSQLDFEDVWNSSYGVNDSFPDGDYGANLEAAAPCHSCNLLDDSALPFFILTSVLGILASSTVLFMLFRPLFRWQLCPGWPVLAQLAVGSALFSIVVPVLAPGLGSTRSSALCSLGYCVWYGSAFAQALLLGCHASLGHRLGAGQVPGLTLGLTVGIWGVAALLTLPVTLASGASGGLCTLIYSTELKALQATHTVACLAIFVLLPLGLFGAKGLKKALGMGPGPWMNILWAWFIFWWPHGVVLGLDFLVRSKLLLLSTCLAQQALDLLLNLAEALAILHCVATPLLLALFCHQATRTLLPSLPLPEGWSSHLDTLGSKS

CXCR2 = target: T2, CXCR2 (human, UniProt P25025 1-360); experiment: biotin-labeled peptide on receptor-expressing cell lines, 125I-streptavidin
T2 construct: whole, on cells
T2 sequence (looked up): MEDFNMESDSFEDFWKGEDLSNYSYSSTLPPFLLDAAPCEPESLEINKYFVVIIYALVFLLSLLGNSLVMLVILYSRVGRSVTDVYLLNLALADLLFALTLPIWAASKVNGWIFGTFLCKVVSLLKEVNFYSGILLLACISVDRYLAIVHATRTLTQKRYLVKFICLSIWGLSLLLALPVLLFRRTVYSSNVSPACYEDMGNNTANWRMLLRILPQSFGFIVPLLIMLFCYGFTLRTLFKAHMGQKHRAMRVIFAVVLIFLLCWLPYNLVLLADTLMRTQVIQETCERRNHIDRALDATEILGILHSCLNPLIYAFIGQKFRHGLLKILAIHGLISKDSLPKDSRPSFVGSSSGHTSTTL

CXCR4 = target: T3, CXCR4 (human, UniProt P61073 1-352); experiment: as above
T3 construct: whole, on cells

CCR5 = target: T4, CCR5 (human, UniProt P51681 1-352); experiment: as above
T4 construct: whole, on cells

CCR3 = target: T5, CCR3 (human, UniProt P51677 1-355); experiment: as above
T5 construct: whole, on cells
T5 sequence (looked up): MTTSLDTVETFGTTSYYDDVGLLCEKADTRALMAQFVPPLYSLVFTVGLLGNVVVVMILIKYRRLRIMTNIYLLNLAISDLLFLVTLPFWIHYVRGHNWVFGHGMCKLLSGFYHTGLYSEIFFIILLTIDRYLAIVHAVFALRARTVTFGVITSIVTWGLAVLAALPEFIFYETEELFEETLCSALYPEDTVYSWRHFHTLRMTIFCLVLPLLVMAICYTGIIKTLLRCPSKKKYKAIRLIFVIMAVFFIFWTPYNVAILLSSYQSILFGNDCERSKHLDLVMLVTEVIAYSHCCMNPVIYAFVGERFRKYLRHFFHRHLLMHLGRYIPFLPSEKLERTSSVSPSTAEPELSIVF

CXCR1 = target: T6, CXCR1 (human, UniProt P25024 1-350); experiment: as above
T6 construct: whole, on cells
T6 sequence (looked up): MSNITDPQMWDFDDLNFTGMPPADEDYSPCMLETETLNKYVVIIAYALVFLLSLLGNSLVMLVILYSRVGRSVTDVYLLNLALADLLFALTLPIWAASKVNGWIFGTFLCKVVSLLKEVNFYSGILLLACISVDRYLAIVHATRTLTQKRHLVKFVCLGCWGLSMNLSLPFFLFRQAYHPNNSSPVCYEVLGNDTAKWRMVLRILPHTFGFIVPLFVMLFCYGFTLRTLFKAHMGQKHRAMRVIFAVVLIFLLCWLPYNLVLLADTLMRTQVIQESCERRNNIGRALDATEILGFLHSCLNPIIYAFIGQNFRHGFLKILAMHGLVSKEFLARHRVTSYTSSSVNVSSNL

CCR2 = target: T7, CCR2 (human, UniProt P41597 1-374); experiment: as above
T7 construct: whole, on cells

CCR4 = target: T8, CCR4 (human, UniProt P51679 1-360); experiment: as above
T8 construct: whole, on cells
T8 sequence (looked up): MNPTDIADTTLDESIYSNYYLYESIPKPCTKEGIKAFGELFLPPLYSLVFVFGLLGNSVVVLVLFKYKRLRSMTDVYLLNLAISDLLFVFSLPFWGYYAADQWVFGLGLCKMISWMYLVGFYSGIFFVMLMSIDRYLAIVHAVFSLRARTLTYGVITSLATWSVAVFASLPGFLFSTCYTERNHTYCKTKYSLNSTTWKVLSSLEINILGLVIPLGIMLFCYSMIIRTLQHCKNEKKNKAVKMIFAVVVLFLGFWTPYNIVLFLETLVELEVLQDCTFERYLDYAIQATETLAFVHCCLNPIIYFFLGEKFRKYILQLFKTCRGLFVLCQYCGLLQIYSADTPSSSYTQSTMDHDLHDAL

CCR1 = target: T9, CCR1 (human, UniProt P32246 1-355); experiment: as above
T9 construct: whole, on cells
T9 sequence (looked up): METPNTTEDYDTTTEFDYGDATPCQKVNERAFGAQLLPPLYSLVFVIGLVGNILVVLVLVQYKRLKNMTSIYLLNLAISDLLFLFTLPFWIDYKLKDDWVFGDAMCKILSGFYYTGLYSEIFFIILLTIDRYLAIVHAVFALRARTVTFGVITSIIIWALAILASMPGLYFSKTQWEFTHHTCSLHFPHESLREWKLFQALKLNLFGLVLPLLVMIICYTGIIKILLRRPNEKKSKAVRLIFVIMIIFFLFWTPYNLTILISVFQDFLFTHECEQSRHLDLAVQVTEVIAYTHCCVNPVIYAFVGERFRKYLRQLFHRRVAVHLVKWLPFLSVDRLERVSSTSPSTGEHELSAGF

[2] = target: T1, Duffy Antigen Receptor for Chemokines …; experiment: Duffy binding; kind of constant not named
[3] = target: T1, Duffy Antigen Receptor for Chemokines …; experiment: competition binding analysis using red blood cells; given as affinity
[4] = target: T1, Duffy Antigen Receptor for Chemokines …; experiment: estimated ka for binding to red blood cells divided by average inhibitory ED50 in THP-1 migration
[5] = target: T1, Duffy Antigen Receptor for Chemokines …; experiment: Table 18, DARC binding; ns = not significantly different from control
[6] = target: T1, Duffy Antigen Receptor for Chemokines …; experiment: DARC binding on red blood cells; printed as Duffy affinity

T7 sequence (P41597 whole entry): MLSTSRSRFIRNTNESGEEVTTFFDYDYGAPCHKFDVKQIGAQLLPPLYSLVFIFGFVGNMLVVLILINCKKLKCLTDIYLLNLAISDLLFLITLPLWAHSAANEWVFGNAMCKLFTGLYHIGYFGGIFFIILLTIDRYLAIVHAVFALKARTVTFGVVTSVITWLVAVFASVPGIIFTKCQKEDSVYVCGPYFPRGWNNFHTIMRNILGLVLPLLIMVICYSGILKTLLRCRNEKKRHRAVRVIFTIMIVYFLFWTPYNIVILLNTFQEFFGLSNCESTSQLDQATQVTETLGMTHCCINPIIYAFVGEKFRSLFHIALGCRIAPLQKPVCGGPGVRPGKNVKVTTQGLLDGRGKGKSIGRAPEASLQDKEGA
T4 sequence (P51681 whole entry): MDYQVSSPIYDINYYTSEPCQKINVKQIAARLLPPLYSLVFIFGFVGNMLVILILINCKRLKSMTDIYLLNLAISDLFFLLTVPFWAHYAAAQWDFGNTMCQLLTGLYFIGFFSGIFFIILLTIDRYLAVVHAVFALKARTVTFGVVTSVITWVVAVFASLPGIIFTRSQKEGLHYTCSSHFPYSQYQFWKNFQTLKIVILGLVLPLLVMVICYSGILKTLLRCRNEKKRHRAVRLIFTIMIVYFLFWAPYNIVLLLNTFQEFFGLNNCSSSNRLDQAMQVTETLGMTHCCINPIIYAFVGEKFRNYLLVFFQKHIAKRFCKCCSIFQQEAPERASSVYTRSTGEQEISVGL
T3 sequence (P61073 whole entry): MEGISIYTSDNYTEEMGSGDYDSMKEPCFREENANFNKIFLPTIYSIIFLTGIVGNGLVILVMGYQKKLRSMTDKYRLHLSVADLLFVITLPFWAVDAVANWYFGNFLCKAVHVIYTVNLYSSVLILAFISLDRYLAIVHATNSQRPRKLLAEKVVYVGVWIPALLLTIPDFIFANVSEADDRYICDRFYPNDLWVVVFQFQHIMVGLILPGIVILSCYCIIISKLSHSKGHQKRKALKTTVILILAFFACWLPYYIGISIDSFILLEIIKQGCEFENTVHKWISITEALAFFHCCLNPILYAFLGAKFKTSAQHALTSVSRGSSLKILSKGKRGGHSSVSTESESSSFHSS

B1: Pep2(1-14)[MIP1α] (peptide)
peptide: DYFETSSQCSKPGV
notes: Called peptide 2(1-15)[MIP1α]; also called Pep2[MIP1α]; peptide 2(1-15)[MIP1-α]
B1 showed a Duffy selectivity [1] of over 100 ratio.

ELRVIESGPHCANTEI (also called Pep2[IL8]) [Pep2(1-16)[IL8]] was tested, and the Duffy selectivity [1] was under 1 ratio.

Binder Biotin-CLDPKQKWIQC (cysteine pairing not given here, also called biotinylated peptide) [N-terminal biotin conjugate of the sequence n'-CLDPKQKWIQC-c'] has a Kd (CXCR2) of over 10 µM, a Kd (CXCR4) of over 10 µM and a Kd (CCR5) of over 10 µM. The Kd (CCR3) was over 10 µM, the Kd (CXCR1) was over 10 µM and the Kd (CCR2) was over 10 µM. For the same binder, the Kd (CCR4) was over 10 µM and the Kd (CCR1) was over 10 µM.

B2: Peptide 2(1-15)[MCP-1] (peptide)
peptide: SYRRITSSKCPKEAV
notes: also called Pep2[MCP1]; Pep2(1-15)[MCP1]
For B2, the Kd [2] was 100 µM, the Duffy selectivity [1] was 0.18 ratio and the Kd [3] was under 0.5 µM.

B3: Leu4Ile11peptide 3(1-12)[MCP-1] (peptide)
peptide: EICLDPKQKWIQ
notes: also called Leu4Ile11pep3; Leu4Ile11peptide 3[MCP-1]
With B3 the Duffy selectivity [4] was 37.8 ratio.

CSKPGV: no binding [5].

For SYRRITSSK [Peptide 2(1-9)[MCP-1]], the Kd [6] was about 50 µM.

DYFETSSQC: no binding [5].
